Laboratory results published in patent publication US20210130436A1 (published 2021).

What was measured:
human PD-L1 on CHO cells [1] = target: T1, human PD-L1 on CHO cells (human, UniProt Q9NZQ7 19-290); experiment: flow cytometry, CHO cells stably expressing PD-L1
T1 construct: whole, on cells; CHO cells stably expressing PD-L1; also called huPD-L1

human CTLA4 on CHO cells [2] = target: T2, human CTLA4 on CHO cells (human, UniProt P16410 36-223); experiment: flow cytometry, CHO/CTLA4 cells; MFI relative to WT CD80
T2 construct: whole, on cells; CHO cells stably expressing CTLA4; also called huCTLA4

human PD-L1 on CHO cells [3] = target: T1, human PD-L1 on CHO cells; experiment: flow cytometry; PD-L1 MFI over CD28 MFI
human CTLA4 on CHO cells [4] = target: T2, human CTLA4 on CHO cells; experiment: flow cytometry, CHO cells stably expressing CTLA4
[5] = target: T3, CD28 on Jurkat/IL2 reporter cells (human, UniProt P10747 19-220); experiment: flow cytometry, Jurkat cells (CD28)
T3 construct: whole, on cells; Endogenous CD28 of Jurkat cells; also called Jurkats (CD28)

[6] = target: T3, CD28 on Jurkat/IL2 reporter cells; experiment: flow cytometry, Jurkat cells (CD28); MFI relative to WT CD80
human PD-L1 on CHO cells [7] = target: T1, human PD-L1 on CHO cells; experiment: flow cytometry, CHO/PD-L1 cells; MFI relative to WT CD80
[8] = target: T4, human PD-L1 (huPD-L1), full-length, stably expressed on CHO cells (human, UniProt Q9NZQ7 19-290); experiment: flow cytometry, CHO cells expressing huPD-L1
T4 construct: whole, on cells
T4 sequence (Q9NZQ7 19-290): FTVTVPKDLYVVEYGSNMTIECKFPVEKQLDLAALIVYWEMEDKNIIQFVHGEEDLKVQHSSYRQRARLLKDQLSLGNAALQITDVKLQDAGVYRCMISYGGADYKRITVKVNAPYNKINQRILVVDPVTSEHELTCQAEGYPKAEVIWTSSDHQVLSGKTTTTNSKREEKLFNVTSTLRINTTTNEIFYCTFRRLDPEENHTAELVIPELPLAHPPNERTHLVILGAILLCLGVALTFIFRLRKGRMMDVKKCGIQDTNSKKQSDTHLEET

T1 sequence (Q9NZQ7 19-290): as above
T2 sequence (P16410 36-223): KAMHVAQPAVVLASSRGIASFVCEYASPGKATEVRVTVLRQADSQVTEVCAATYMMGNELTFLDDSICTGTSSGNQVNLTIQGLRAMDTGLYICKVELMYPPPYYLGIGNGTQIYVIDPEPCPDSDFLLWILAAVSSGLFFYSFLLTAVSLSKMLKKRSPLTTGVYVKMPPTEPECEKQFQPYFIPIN

Row | Binder | MFI at 33.3 nM (human PD-L1 on CHO cells [1]) [MFI] | Fold change to WT CD80 (human CTLA4 on CHO cells [2]) [fold] | Ratio of PDL1:CD28 (human PD-L1 on CHO cells [3]) [ratio] | MFI at 33.3 nM (human CTLA4 on CHO cells [4]) [MFI] | MFI at 33.3 nM [5] [MFI] | Fold change to WT CD80 [6] [fold] | Fold change to WT CD80 (human PD-L1 on CHO cells [7]) [fold] | MFI at 33.3 nM [8] [MFI]
1 | CD80 WT IgV-Fc (Fc fusion, not shown: a dimerising Fc or GST, also called WT CD80 IgV-Fc; wild-type CD80 IgV-Fc) VIHVTKEVKEVATLSCGHNVSVEELAQTRIYWQKEKKMVLTMMSGDMNIWPEYKNRTIFDITNNLSIVILALRPSDEGTYECVVLKYEKDAFKREHLAEVTLSVKAD | 70.3 | 1 | 1 | 1920 | 66 | 1 | 1 | –
2 | variant CD80 IgV-Fc E35D/D46E/A91G (Fc fusion, not shown: a dimerising Fc or GST) VIHVTKEVKEVATLSCGHNVSVEELAQTRIYWQKDKKMVLTMMSGEMNIWPEYKNRTIFDITNNLSIVILALRPSDEGTYECVVLKYEKDGFKREHLAEVTLSVKAD | 2820 | 16.8 | 1 | 32200 | 3450 | 52.3 | 40.1 | –
3 | variant CD80 IgV-Fc E35D/D46E/M47I (Fc fusion, not shown: a dimerising Fc or GST) VIHVTKEVKEVATLSCGHNVSVEELAQTRIYWQKDKKMVLTMMSGEINIWPEYKNRTIFDITNNLSIVILALRPSDEGTYECVVLKYEKDAFKREHLAEVTLSVKAD | 3790 | 11.2 | 4 | 21400 | 1000 | 15.2 | 53.9 | –
4 | variant CD80 IgV-Fc E35D/M47I/N48K/I61F (Fc fusion, not shown: a dimerising Fc or GST) VIHVTKEVKEVATLSCGHNVSVEELAQTRIYWQKDKKMVLTMMSGDIKIWPEYKNRTIFDFTNNLSIVILALRPSDEGTYECVVLKYEKDAFKREHLAEVTLSVKAD | 5630 | 13.5 | 7 | 25900 | 816 | 12.4 | 80 | –
5 | variant CD80 IgV-Fc E35D/M43I/D46E/A71G/L85M (Fc fusion, not shown: a dimerising Fc or GST) VIHVTKEVKEVATLSCGHNVSVEELAQTRIYWQKDKKMVLTMISGEMNIWPEYKNRTIFDITNNLSIVILGLRPSDEGTYECVVMKYEKDAFKREHLAEVTLSVKAD | 7140 | 14 | 36 | 26900 | 200 | 3 | 102 | –
6 | variant CD80 IgV-Fc E35D/D46E (Fc fusion, not shown: a dimerising Fc or GST) VIHVTKEVKEVATLSCGHNVSVEELAQTRIYWQKDKKMVLTMMSGEMNIWPEYKNRTIFDITNNLSIVILALRPSDEGTYECVVLKYEKDAFKREHLAEVTLSVKAD | 3760 | 14.6 | 5 | 27900 | 779 | 11.8 | 53.4 | –
7 | variant CD80 IgV-Fc D46V/M47I/A71G (Fc fusion, not shown: a dimerising Fc or GST) VIHVTKEVKEVATLSCGHNVSVEELAQTRIYWQKEKKMVLTMMSGVINIWPEYKNRTIFDITNNLSIVILGLRPSDEGTYECVVLKYEKDAFKREHLAEVTLSVKAD | 7330 | 14.8 | 6 | 28400 | 1320 | 20.1 | 104 | –
8 | variant CD80 IgV-Fc E35D/D46E/L85M (Fc fusion, not shown: a dimerising Fc or GST) VIHVTKEVKEVATLSCGHNVSVEELAQTRIYWQKDKKMVLTMMSGEMNIWPEYKNRTIFDITNNLSIVILALRPSDEGTYECVVMKYEKDAFKREHLAEVTLSVKAD | 2880 | 15.8 | 18 | 30300 | 164 | 2.5 | 41 | –

Second part, the binder after the results:

Row | MFI at 33.3 nM (human PD-L1 on CHO cells [1]) [MFI] | Fold change to WT CD80 (human CTLA4 on CHO cells [2]) [fold] | Ratio of PDL1:CD28 (human PD-L1 on CHO cells [3]) [ratio] | MFI at 33.3 nM (human CTLA4 on CHO cells [4]) [MFI] | MFI at 33.3 nM [5] [MFI] | Fold change to WT CD80 [6] [fold] | Fold change to WT CD80 (human PD-L1 on CHO cells [7]) [fold] | MFI at 33.3 nM [8] [MFI] | Binder
9 | – | – | – | – | – | – | – | 13100 | variant CD80 IgV-Fc E35D/M47I/V68M/Y87N (Fc fusion, not shown: small tags and cut ends; a dimerising Fc or GST) VIHVTKEVKEVATLSCGHNVSVEELAQTRIYWQKDKKMVLTMMSGDINIWPEYKNRTIFDITNNLSIMILALRPSDEGTYECVVLKNEKDAFKREHLAEVTLSVKAD
10 | 2190 | 15.8 | 30 | 30300 | 72.4 | 1.1 | 31.2 | – | variant CD80 IgV-Fc E35D/T41S/N48I (Fc fusion, not shown: a dimerising Fc or GST, also called E35D/T41S/N48T) VIHVTKEVKEVATLSCGHNVSVEELAQTRIYWQKDKKMVLSMMSGDMTIWPEYKNRTIFDITNNLSIVILALRPSDEGTYECVVLKYEKDAFKREHLAEVTLSVKAD
11 | 7760 | 12.2 | 8 | 23300 | 1000 | 15.2 | 110 | – | variant CD80 IgV-Fc M43I/M47L/A71G (Fc fusion, not shown: a dimerising Fc or GST) VIHVTKEVKEVATLSCGHNVSVEELAQTRIYWQKEKKMVLTMISGDLNIWPEYKNRTIFDITNNLSIVILGLRPSDEGTYECVVLKYEKDAFKREHLAEVTLSVKAD
12 | 3530 | 13.7 | 7 | 26300 | 479 | 7.3 | 50.2 | – | variant CD80 IgV-Fc H18Y/E35D (Fc fusion, not shown: a dimerising Fc or GST) VIHVTKEVKEVATLSCGYNVSVEELAQTRIYWQKDKKMVLTMMSGDMNIWPEYKNRTIFDITNNLSIVILALRPSDEGTYECVVLKYEKDAFKREHLAEVTLSVKAD
13 | 8310 | 8.7 | 42 | 16600 | 199 | 3 | 118 | – | variant CD80 IgV-Fc E35D/M47L/A71G/L85M (Fc fusion, not shown: a dimerising Fc or GST) VIHVTKEVKEVATLSCGHNVSVEELAQTRIYWQKDKKMVLTMMSGDLNIWPEYKNRTIFDITNNLSIVILGLRPSDEGTYECVVMKYEKDAFKREHLAEVTLSVKAD
14 | 5100 | 14.5 | 6 | 27800 | 823 | 12.5 | 72.5 | – | variant CD80 IgV-Fc M47I/A71G (Fc fusion, not shown: a dimerising Fc or GST) VIHVTKEVKEVATLSCGHNVSVEELAQTRIYWQKEKKMVLTMMSGDINIWPEYKNRTIFDITNNLSIVILGLRPSDEGTYECVVLKYEKDAFKREHLAEVTLSVKAD
15 | 7580 | 12.6 | 14 | 24200 | 528 | 8 | 108 | – | variant CD80 IgV-Fc H18Y/E35D/M47L/A71G/A91S (Fc fusion, not shown: a dimerising Fc or GST) VIHVTKEVKEVATLSCGYNVSVEELAQTRIYWQKDKKMVLTMMSGDLNIWPEYKNRTIFDITNNLSIVILGLRPSDEGTYECVVLKYEKDSFKREHLAEVTLSVKAD
16 | 2940 | 10.9 | 6 | 20900 | 461 | 7 | 41.7 | – | variant CD80 IgV-Fc E35D/M47V (Fc fusion, not shown: a dimerising Fc or GST) VIHVTKEVKEVATLSCGHNVSVEELAQTRIYWQKDKKMVLTMMSGDVNIWPEYKNRTIFDITNNLSIVILALRPSDEGTYECVVLKYEKDAFKREHLAEVTLSVKAD
